The target in this assay is trkB-IgG immunoadhesin (human trkB extracellular domain fused to human IgG-1 Fc) (human). Nature of the assay: competitive displacement of iodinated BDNF from trkB-IgG by unlabelled NT4/5.
trkB-IgG immunoadhesin (human trkB extracellular domain fused to human IgG-1 Fc) (human), sequence (Q16620 32-423): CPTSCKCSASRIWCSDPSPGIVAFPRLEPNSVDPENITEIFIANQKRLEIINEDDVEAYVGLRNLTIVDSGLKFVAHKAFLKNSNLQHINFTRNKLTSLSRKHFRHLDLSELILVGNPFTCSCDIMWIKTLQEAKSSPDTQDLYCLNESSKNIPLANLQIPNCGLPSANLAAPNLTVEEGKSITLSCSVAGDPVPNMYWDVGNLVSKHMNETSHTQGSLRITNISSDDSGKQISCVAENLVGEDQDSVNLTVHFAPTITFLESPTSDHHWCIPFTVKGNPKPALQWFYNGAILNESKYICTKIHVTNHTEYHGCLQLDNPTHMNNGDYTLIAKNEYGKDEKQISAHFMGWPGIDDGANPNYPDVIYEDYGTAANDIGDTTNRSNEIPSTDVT

With “neurotrophin-4/5 (NT-4/5) (from UniProt P34130 81-210) (ligand)”, the half-inhibitory concentration (IC50) (usually the concentration that gives 50% inhibition) worked out at 0.2 nM.
